For test [1], the target named is T1, mutant CALR dimers and monomers bound to TpoR in TF-1 TpoR CALR^del61 (Homo sapiens, UniProt P27797).
T1 construct: expressed in transfected cells; host or cells: TF-1 TpoR CALR^del61
T1 sequence (P27797 with tags, fused parts or gaps limits assumed): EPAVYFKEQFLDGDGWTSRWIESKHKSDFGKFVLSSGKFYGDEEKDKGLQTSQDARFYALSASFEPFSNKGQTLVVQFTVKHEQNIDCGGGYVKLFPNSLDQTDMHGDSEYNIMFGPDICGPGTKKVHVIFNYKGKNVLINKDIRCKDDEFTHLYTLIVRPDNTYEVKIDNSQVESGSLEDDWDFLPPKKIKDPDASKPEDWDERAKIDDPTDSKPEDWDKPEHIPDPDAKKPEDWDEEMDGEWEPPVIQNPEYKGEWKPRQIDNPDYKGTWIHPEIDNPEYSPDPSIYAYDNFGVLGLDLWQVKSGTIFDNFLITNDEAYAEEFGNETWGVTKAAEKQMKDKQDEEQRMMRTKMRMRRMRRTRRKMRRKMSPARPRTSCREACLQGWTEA
Put plainly: TpoR immunoprecipitation under non-reducing conditions. The class given is cell-based. Conditions: 8 hour treatment with 20 μg/mL. How it is done: A. Cell extracts blotted for phospho-STAT5, total STAT5, phospho-ERK, total ERK and actin from TF-1 TpoR cells after incubation with 10 or 20 μg/mL 4D7 or IgG for 4 or 8 hours, in presence of TPO. The last line indicates TPO withdrawal. B. Similar experiment using TPO-independent TF-1 TpoR CALR^del61 cells. C. Similar experiment using TPO-independent TF-1 TpoR CALR^del52 cells at 8 hours. D. Fraction of apoptotic sub-Go population of TF-1 TpoR CALR^del61 cells after 48 hours of 4D7 or IgG treatment (n=3). E. Western blot showing caspase 3 cleavage occurring within 24 hours of TPO withdrawal in TPO dependent TF-1 TpoR cells. An increase in cleaved caspase 3 is observed after 48 hours of treatment with 20 μg/mL 4D7 in TF-1 TpoR CALR^del61 and TF-1 TpoR CALR^del52 cells. F. Western blot of TpoR immunoprecipitation under non-reducing conditions showing associated CALR 50 kDa monomers and 100 kDa dimers (arrowheads) present only in TF-1 TpoR CALR^del61 disrupted by 8 hour treatment with 20 μg/mL 4D7 but not PBS or 20 μg/mL IgG. CALR monomers & dimers are detectable by polyclonal anti-wild type CALR or anti-mutant CALR monoclonal antibodies. Arrowheads, detected mutant CALR protein: asterisk, non-specific bands. G. Proposed model for the mechanism of action of 4D7 on mutant CALR. […]

Test [2] has as its system TF-1 TpoR CALR^del61 cells in NSG mice. Put plainly: Chloroma xenograft model (subcutaneous injection). The format is in vivo. The method, then: All procedures were approved by the South Australian Health and Medical Research Animal Ethics Committee (Protocol SAM21-018). Bone marrow engraftment model: 4-6 week old NSG mice were x-ray irradiated with 150 cGy and 5×10^5 cells (TF-1-TpoR CALR^del61) or 5×10^4 cells (100 nM ruxolitinib resistant TF-1 TpoR CALR^del61) were intravenously injected into mice. […] Tail vein bleeds were taken at 3 weeks and analysed via flow cytometry to determine human leukaemia content in the peripheral blood. Leukemic cells were PI-, mCD45.1, hCD33+, zsGreen+. Mice were monitored daily and euthanized once clinical symptoms were observed. At the time of euthanasia, cardiac puncture was performed to obtain both peripheral blood and serum for analysis. Additionally, bone marrow from both femurs, spine and spleens were analysed for leukemic content as detailed above. Chloroma model: 4-6 week old NSG mice were anaesthetised by isoflurane inhalation and shaved on the left back/flank and 1×10^7 cells were injected into the mice. Cells were pre-treated with 20 μg/mL IgG or 4D7 for 1 hour prior to injection. […] Tumour progression was assessed through caliper measurements every 2 days. Mice were euthanised once tumours began to impede movement, show signs of ulceration or if any measurement of the tumour exceeded 30 mm (length, width or depth).

B1: 4D7: rat monoclonal IgG2a antibody against the mutant CALR neoepitope; VH SEQ ID NO: 5, VL SEQ ID NO: 7 (antibody, listed as Rattus rattus, V domains shown)
VH: QVQLQQSGAELAKPGSSVKISCKASGYTFTNYDMSWIKQRPGQALEWIGAINPGNGVTDYNEKFRGKATLTVDKSSSTAFMQLSSLTPEDTAVYHCAREYRDNYGYFDYWGQGVMVTVSS
VL: DIVLTQTPVSLSVTLGDQASISCRSSQSLEYSDGYTYLDWFLQKPGQSPQLLIYEVSSRFSGVPDRFIGRGSGTDFTLKISRVEPEDLGVYYCFQATHDPFTFGSGTKLEIK
As for B1, the “presence of CALR disulfide-linked dimers and CALR monomers bound to TpoR” value in test [1] is given as “diminished”. In test [2] (4D7 vs IgG, P=0.02), the “survival, hazard ratio” value is 0.19. For the same molecule, the mean tumour volume in test [2] (21 days post-engraftment, 12.5 mg/kg twice weekly, P=0.04) came out at 353 mm^3.

For the origin of these results see patent US20250236667A1, “ANTIBODIES TO MUTANT CALRETICULIN AND USES THEREOF” (CENTRAL ADELAIDE LOCAL HEALTH NETWORK INC, priority 2021, published 2025).
